Measured values from patent US9782486B2, “Albumin conjugated temperature and pH-sensitive multi-block copolymer, a method of preparation thereof and drug delivery system using the same” (Research & Business Foundation Sungkyunkwan University, priority 2014, dated 2017).
Like-named read-outs stand apart in the source and are kept apart here.

Assays:
[1] = Zeta potential measurement; assay type: physicochemical; conditions: solution alone, pH 7.4, 1 mg/mL, room temperature
Experimental: The zeta potential values of the PAU and PAUBSA conjugates were measured at room temperature by Metasizer Nano ZS instrument (Malvern Instrument). The solution concentrations for all samples were 1 mg/mL and their pH was adjusted to 7.4. The solutions were stabilized at room temperature for 20 minutes before measurement.

[2] = cited from earlier work
[3] = In vivo lysozyme release, lysozyme in blood serum (ELISA); design: species or system male SD rats
Experimental: (§1) In order to examine the in vivo release of lysozyme, a sample solution loaded with 250 μL of lysozyme was injected to male SD rats (three rats per group). At predetermined times, blood samples were collected from the caudal vein, centrifuged to obtain blood sera, and stored them at −21° C. until the next analysis. The concentration of the lysozyme in the blood sera was measured using a commercial lysozyme (LZM) ELISA kit (Cusabio, China).
as §1, with “tunes,” for “times,”

[4] = single subcutaneous injection of lysozyme-loaded sample

lysozyme: chicken egg white lysozyme, model protein loaded into the hydrogels; also injected as plain solution
zeta potential [1]: 11.2 mV
temperature up to which thermal stability is maintained ([2]; in the presence of an anionic modified polymer): up to 72 °C
bioactivity of lysozyme released from PEG-based hydrogels and other polymeric devices ([2]; up to 28 days): about 95%
bioactivity of lysozyme released from PEG-based hydrogels and other polymeric devices ([2]; up to 50 days): 100%
duration of lysozyme release until serum lysozyme reached the normal level [3, 4]: within nine days
initial burst release of lysozyme in vivo [3, 4]: initial burst was obviously observed
time to reach peak lysozyme level ([3]; single subcutaneous injection, 10 mg/mL lysozyme): within two days
peak lysozyme level in blood ([3]; single subcutaneous injection, 10 mg/mL lysozyme in the preparation): about 447 ng/mL
